The text below walks through data of patent US6043072, “Nucleic acids encoding Taxus geranylgeranyl diphosphate synthase, and methods of use” (Washington State University Research Foundation, dated 2000).

The data set concerns the molecule itself. Description: gel permeation chromatography on calibrated Superdex G-75 (about 60,000 against the predicted monomer of 32.1 kDa) with SDS-PAGE; self-association (homodimer).

Description: After centrifugation as above, the cell pellet was resuspended in 80 ml of ice cold 50 mM Tris (pH 7.6) containing 10% (v/v) glycerol, 10 mM MgCl_2, 5 mM DTT, and 1 μg/ml leupeptin (extraction/assay buffer). All subsequent operations were conducted at 0–4° C. Cells were disrupted with 150 ml glass beads using a Biospec Bead-Beater operated at 90 V for 5 min, and the resulting debris was removed by centrifugation at 3000 g for 20 min to yield a supernatant that was further clarified by centrifugation at 31,000 g for 20 min. The resulting supernatant was used as the enzyme source.

B1: T. canadensis GGPP synthase Tr^295 truncated protein (enzyme)
chain: FDFNEYMKSKAVAVDAALDKAIPLEYPEKIHESMRYSLLAGGKRVRPALCIAACELVGGSQDLAMPTACAMEMIHTMSLIHDDLPCMDNDDFRRGKPTNHKVFGEDTAVLAGDALLSFAFEHIAVATSKTVPSDRTLRVISELGKTIGSQGLVGGQVVDITSEGDANVDLKTLEWIHIHKTAVLLECSVVSGGILGGATEDEIARIRRYARCVGLLFQVVDDILDVTKSSEELGKTAGKDLLTDKATYPKLMGLEKAKEFAAELATRAKEELSSFDQIKAAPLLGLADYIAFRQN
With B1, the binding result was “binds”.
